One block for each binder: values may come before it. Where no end group is shown, it is not given here. The star is where a group is joined. Biotin = O=C1N[C@H]2[C@H](CS[C@H]2CCCCC(=O)*)N1; Ahx = NCCCCCC(=O)O
How the values were obtained:
CD99ExhIgG = target: T1, CD99ExhIgG (Homo sapiens, UniProt P14209); test: ELISA; indirect ELISA; CD99ExhIgG (or CD147Rg as negative control) coated on the plate at 4 °C overnight; purified HuScFvMT99/3 (HIS6X) at 1, 5 and 10 ug/mL, room temperature 1 h; detected with HRP anti-His tag antibody; conditions: both partners purified
T1 construct: extracellular part of human CD99; also called CD99ExIgG; recombinant CD99ExhIgG; source: HEK293T stably expressing, culture supernatant, purified (HiTrap Protein G)
T1 sequence (P14209 23-122): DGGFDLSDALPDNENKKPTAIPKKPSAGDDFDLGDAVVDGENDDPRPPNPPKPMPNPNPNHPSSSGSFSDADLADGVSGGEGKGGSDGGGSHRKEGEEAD

[1] = target: T2, CD99 peptide number 6 (Biotin-Ahx-AVVDGENDDPRPPNP) (human); test: BLI
T2 peptide: {Biotin-Ahx}-AVVDGENDDPRPPNP

[2] = target: T3, CD99 peptide number 6 (Biotin-Ahx-AVVDGENDDPRPPNP) (Homo sapiens); test: BLI; Biotin-Ahx-AVVDGENDDPRPPNP (10 ug/mL) loaded on streptavidin biosensors; antibody 0.625 to 10 ug/mL in PBS with 0.05% Tween 20; Octet K2; conditions: both partners purified
T3 construct: stretch of human CD99
T3 chain: {Biotin-Ahx}-AVVDGENDDPRPPNP

binding result (CD99ExhIgG): binds
B1: HuScFvMT99/3 (HIS6X) (scFv, V domains shown)
VH: QVQLQESGPGLVKPSETLSLTCTLSGFNIKDTYIHWVRQPPGKGLEWIGRIDPGNGNIKYDPKFQGRATISADTSKNQVSLNLDSVSAADTAIYYCARSGGYDFDYWGKGSTVTVSS
VL: VQMTQSPSSLSASVGDRVTITCRSSQSLVHSNGNTYLHWYQQKPGKAPKLLIYTVSNRFSGVPSRFSGSGSGTDFTFTISSLQPEDIATYFCSQSTYVPYTFGPGTKVDIK
notes: V-KAPPA domain of HuScFvMT99/3; linker of the ScFvkh format (V-KAPPA-linker-VH); VH domain of HuScFvMT99/3; order V-KAPPA-linker-VH; cloned NdeI/XhoI into pET-21a; also called humanized single-chain Fv MT99/3; humanized ScFv variant of mAb MT99/3; source: E. coli Origami B (DE3), purified (Ni-NTA agarose); not shown: His6, C-terminal, kept

koff [1]: 8.06e-05 s⁻¹
Kd [2]: 0.316 nM
B2: mouse anti-CD99 monoclonal antibody MT99/3 (antibody, V domains shown)
VH: VQLQQSGAELVKPGASVRLSCTLSGFNIKDTYIHWVNQRPEQGLEWIGRIDPGNGNIKYDPKFQGKATITADTSSNKVYLHLSSLTSEDTAVYYCARSGGYDFDYWGQGTTLTVSS
VL: DVVMTQTPLSLPVSLGYQVSISCRSSQSLVHSNGNTYLHWYLQKPGQSPKLLIYTVSNRFSGVPDRFSGSGSGTDFTLKISRVEAEDLGVYFCSQSTYVPYTFGGGTKLEKK
notes: mouse IgG heavy constant region; Parent antibody of m1 and m2; also called mAb MT99/3; mouse MT99/3

From publication PMC11592157, “Exploring the Biological Activity of a Humanized Anti-CD99 ScFv and Antibody for Targeting T Cell Malignancies” (Biomolecules, 2024)
